Measured values reported in the RNAGym collection of RNA variant scans (doi:10.1101/gr.219683.116).

B1: mRNA-splicing (parent)
chain: AGUUGCUGCUGGGAGCUCCAGCACAGUGAAAUGGACAGAAGGGCAGAGCAA

Variants of: B1
Test: exon inclusion enrichment index; higher = more inclusion; WT1 exon 5 minigene, HEK293

Variant	exon inclusion enrichment index
AGUUGCUGCUGGGAGCUCGUGCACAGUGAAAUGGACAGAAGGGCAGAGCAA [C19G A20U]	2.21
AGUUGCUGCUGGGAGCUCGCGCACAGUGAAAUGGACAGAAGGGCAGAGCAA [C19G A20C]	2.84
AGUUGCUGCUGGGAGCUCGGGCACAGUGAAAUGGACAGAAGGGCAGAGCAA [C19G A20G]	1.23
AGUUGCUGCUGGUGGCUCCAGCACAGUGAAAUGGACAGAAGGGCAGAGCAA [G13U A14G]	0.0891
AGUUGCUGCUGGUCGCUCCAGCACAGUGAAAUGGACAGAAGGGCAGAGCAA [G13U A14C]	0.0646
AGUUGCUGCUGGUUGCUCCAGCACAGUGAAAUGGACAGAAGGGCAGAGCAA [G13U A14U]	0.0193
AGUUGCUGCUGGGAGCGUCAGCACAGUGAAAUGGACAGAAGGGCAGAGCAA [U17G C18U]	1.5
AGUUGCUGCUGGGAGCGACAGCACAGUGAAAUGGACAGAAGGGCAGAGCAA [U17G C18A]	1.73
AGUUGCUGCUGGGAGCGGCAGCACAGUGAAAUGGACAGAAGGGCAGAGCAA [U17G C18G]	0.0429
AGUUGCUGCUGGGCGCUCCAGCACAGUGAAAUGGACAGAAGGGCAGAGCAA [A14C]	0.099
AGUUGCUGCUGGGGGCUCCAGCACAGUGAAAUGGACAGAAGGGCAGAGCAA [A14G]	0.0948
AGUUGCUGCUGGGUGCUCCAGCACAGUGAAAUGGACAGAAGGGCAGAGCAA [A14U]	0.0353
AGUUGCUGCUGGGAGGUCCAGCACAGUGAAAUGGACAGAAGGGCAGAGCAA [C16G]	0.103
AGUUGCUGCUGGGAGUUCCAGCACAGUGAAAUGGACAGAAGGGCAGAGCAA [C16U]	0.0903
AGUUGCUGCUGGGAGAUCCAGCACAGUGAAAUGGACAGAAGGGCAGAGCAA [C16A]	0.0656
AGUUGCUGCUGGGAGCUCCUUCACAGUGAAAUGGACAGAAGGGCAGAGCAA [A20U G21U]	1.91
AGUUGCUGCUGGGAGCUCCUCCACAGUGAAAUGGACAGAAGGGCAGAGCAA [A20U G21C]	2.37
AGUUGCUGCUGGGAGCUCCUACACAGUGAAAUGGACAGAAGGGCAGAGCAA [A20U G21A]	1.45
AGUUGCUGCUGGGAGCUCACGCACAGUGAAAUGGACAGAAGGGCAGAGCAA [C19A A20C]	1.81
AGUUGCUGCUGGGAGCUCAGGCACAGUGAAAUGGACAGAAGGGCAGAGCAA [C19A A20G]	0.356
AGUUGCUGCUGGGAGCUCAUGCACAGUGAAAUGGACAGAAGGGCAGAGCAA [C19A A20U]	1.14
AGUUGCUGCUGGGAGCUCCCCCACAGUGAAAUGGACAGAAGGGCAGAGCAA [A20C G21C]	0.634
AGUUGCUGCUGGGAGCUCCCACACAGUGAAAUGGACAGAAGGGCAGAGCAA [A20C G21A]	1.19
AGUUGCUGCUGGGAGCUCCCUCACAGUGAAAUGGACAGAAGGGCAGAGCAA [A20C G21U]	1.49
AGUUGCUGCUGGGAACUCCAGCACAGUGAAAUGGACAGAAGGGCAGAGCAA [G15A]	0.048
AGUUGCUGCUGGGACCUCCAGCACAGUGAAAUGGACAGAAGGGCAGAGCAA [G15C]	0.187

Variant	exon inclusion enrichment index
AGUUGCUGCUGGGAUCUCCAGCACAGUGAAAUGGACAGAAGGGCAGAGCAA [G15U]	0.0812
AGUUGCUGCUGGGGCCUCCAGCACAGUGAAAUGGACAGAAGGGCAGAGCAA [A14G G15C]	0.0893
AGUUGCUGCUGGGGUCUCCAGCACAGUGAAAUGGACAGAAGGGCAGAGCAA [A14G G15U]	0.0597
AGUUGCUGCUGGGGACUCCAGCACAGUGAAAUGGACAGAAGGGCAGAGCAA [A14G G15A]	0.102
AGUUGCUGCUGGGAAAUCCAGCACAGUGAAAUGGACAGAAGGGCAGAGCAA [G15A C16A]	0.03
AGUUGCUGCUGGGAAUUCCAGCACAGUGAAAUGGACAGAAGGGCAGAGCAA [G15A C16U]	0.014
AGUUGCUGCUGGGAAGUCCAGCACAGUGAAAUGGACAGAAGGGCAGAGCAA [G15A C16G]	0.0571
AGUUGCUGCUGGGAGCUUCAGCACAGUGAAAUGGACAGAAGGGCAGAGCAA [C18U]	1.27
AGUUGCUGCUGGGAGCUACAGCACAGUGAAAUGGACAGAAGGGCAGAGCAA [C18A]	1.5
AGUUGCUGCUGGGAGCUGCAGCACAGUGAAAUGGACAGAAGGGCAGAGCAA [C18G]	0.287
AGUUGCUGCUGGGAGCUCUCGCACAGUGAAAUGGACAGAAGGGCAGAGCAA [C19U A20C]	1.96
AGUUGCUGCUGGGAGCUCUGGCACAGUGAAAUGGACAGAAGGGCAGAGCAA [C19U A20G]	0.684
AGUUGCUGCUGGGAGCUCUUGCACAGUGAAAUGGACAGAAGGGCAGAGCAA [C19U A20U]	1.01
AGUUGCUGCUGGGAGUCCCAGCACAGUGAAAUGGACAGAAGGGCAGAGCAA [C16U U17C]	0.038
AGUUGCUGCUGGGAGUACCAGCACAGUGAAAUGGACAGAAGGGCAGAGCAA [C16U U17A]	0.0567
AGUUGCUGCUGGGAGUGCCAGCACAGUGAAAUGGACAGAAGGGCAGAGCAA [C16U U17G]	0.211
AGUUGCUGCUGGGAUAUCCAGCACAGUGAAAUGGACAGAAGGGCAGAGCAA [G15U C16A]	0.0156
AGUUGCUGCUGGGAUGUCCAGCACAGUGAAAUGGACAGAAGGGCAGAGCAA [G15U C16G]	0.0648
AGUUGCUGCUGGGAUUUCCAGCACAGUGAAAUGGACAGAAGGGCAGAGCAA [G15U C16U]	0.0329
AGUUGCUGCUGGGUUCUCCAGCACAGUGAAAUGGACAGAAGGGCAGAGCAA [A14U G15U]	0.0223
AGUUGCUGCUGGGUCCUCCAGCACAGUGAAAUGGACAGAAGGGCAGAGCAA [A14U G15C]	0.0264
AGUUGCUGCUGGGUACUCCAGCACAGUGAAAUGGACAGAAGGGCAGAGCAA [A14U G15A]	0.0161
AGUUGCUGCUGGGCUCUCCAGCACAGUGAAAUGGACAGAAGGGCAGAGCAA [A14C G15U]	0.0261
AGUUGCUGCUGGGCCCUCCAGCACAGUGAAAUGGACAGAAGGGCAGAGCAA [A14C G15C]	0.0378
AGUUGCUGCUGGGCACUCCAGCACAGUGAAAUGGACAGAAGGGCAGAGCAA [A14C G15A]	0.0127
